In the data set the test system is MS2 coat protein. Kind of data set: apparent KD of MS2 coat protein; designed switch direction (-1 OFF switch, 1 ON switch): -1; higher = weaker reporter binding. The gist of the method: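 The reported apparent KD is a per-design median over clusters, from curve fits of normalised cluster fluorescence. Protein titrations used SNAP-549-labelled MS2 coat protein, doubled from 0.7 or 1.5 nM to 3 µM, in Tris-HCl pH 7.5 buffer with KCl, MgCl2, BSA, DTT, tRNA and Tween-20, with no input, 200 uM small-molecule ligand, or an oligonucleotide input. The RNA switches were transcribed on Illumina chips by stalled E. coli RNA polymerase.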

The mark [1] stands for this setting: input ligand: microRNA oligo, concentration not stated.
Setting [2] is: Eterna round: R95, input ligand: FMN 200 uM.
[3] abbreviates: Eterna round: R95, input ligand: microRNA oligo, concentration not stated.
Setting [4] is: Eterna round: R95, input ligand: none.

As for “AUGUCGGCAGGAUAUACAUGAGGAUCACCCAUGUAAAUUUUUCGUUUAACUUGAAUGUGUAGAAGGGCCAUGUA [Ex3 #69] (Eterna round: R97, puzzle: Exclusion 3)”, the “apparent KD of MS2 coat protein” value by setting is: (input ligand: FMN 200 uM) 0.0291 µM; (input ligand: none) 0.0289 µM.

“CCAGGCAAUUCCACUUGUAACAUGAGGAUCACCCAUGUGACCUGGUAUCAAGGCAGCUCGUCAUCCCACCAUAUUCA [Eternabot (L1) Solution 23] (Eterna round: R97, puzzle: Sensor, turn-off variant 1)”: the “apparent KD of MS2 coat protein” value (input ligand: FMN 200 uM) came to 0.0188 µM and the “apparent KD of MS2 coat protein” value (input ligand: none) is 0.0184 µM.

Turning to “AGUACUAUCACGAAAGUGAUAGUACAAUAAGCAAGUGAAACAUGAGGAUCACCCAUGUCCUCAUUUGCUCGUCUUAU [JL turnoff v2 74] (Eterna round: R96, puzzle: Sensor v2, turn-off variant 2)”, the “apparent KD of MS2 coat protein” value is, setting by setting: (input ligand: FMN 200 uM) 0.0167 µM; under setting [1], 0.4 µM; (input ligand: none) 0.0191 µM.

Take “UUUAAUUUUUUUUUUUUACAAGCUUUUUGCUCGUCUUAUACAUGAGGAUCACCCAUGUGGGUGAGAAGUAAAUUAUC [JMF 48] (puzzle: Sensor v3, turn-off variant 2)”: the “apparent KD of MS2 coat protein” value amounted to 0.0637 µM under setting [2], 0.0146 µM under setting [3] and 0.224 µM under setting [4].

In the case of “CCUAGUUGGUAAGGAUAUCCUACACUAUUCUGACCCGUGCAAGCUACAUGAGGAUCACCCAUGUGGGAGAAGGUGCGUCAACGC [Design 11] (Eterna round: R96, puzzle: Exclusion NG 2)”, the “apparent KD of MS2 coat protein” value is 0.0291 µM (input ligand: FMN 200 uM), 0.0197 µM under setting [1] and 0.0329 µM (input ligand: none).

With “GGUGUGCUAGGAUAUGCUUUGGGCUCGCUUUCCUUCGUUUUACUUGAGGAUCACCCAAGUAGAAGGAGCUUGCC [salish99_ex2_r4_037] (Eterna round: R97, puzzle: Exclusion 2)”, the “apparent KD of MS2 coat protein” value reads like this: (input ligand: FMN 200 uM) 0.0133 µM; (input ligand: none) 0.0116 µM.

With “GGACAUAAAGUCAGGAUAUUAAUGCGAACAAGCGAUGAGAAGGGACAUGAGGAUCACCCAUGUGAUUCUCAUCA [Edvebe] (Eterna round: R97, puzzle: Brourd's mod of Exclusion 4)”, the “apparent KD of MS2 coat protein” value is, setting by setting: (input ligand: FMN 200 uM) 0.0176 µM; (input ligand: none) 0.0165 µM.

With “CUCUUGGCAGGAUAUGCUCUUUUAGACAUGAGGAUCACCCAUGUGCUCAUUCCUUCUUUUGCAGAAGGGCCUUAAC [JR_E5_Sub048] (puzzle: Exclusion 5)”, the “apparent KD of MS2 coat protein” value under setting [3] was 0.0638 µM.

In the case of “GCACGGAGUGUAGGAUAUUAGUGCGAUUAGCACUGAGAAGGACAUGAGGAUCACCCAUGUUCCUCAAUAAUUAGCCUUCCGUGC [Eli exng1 - 038] (Eterna round: R96, puzzle: Exclusion NG 1)”, the “apparent KD of MS2 coat protein” value is 0.0152 µM (input ligand: FMN 200 uM), 0.00961 µM under setting [1] and 0.0157 µM (input ligand: none).

As for “GGUGUGCUAGGAUAUGCUUUGGGCUCGCUUUCCUUCGUUUUACUUGAGGAUCACCCAAGUAGAAGGUGCUUGCC [salish99_ex2_r4_038] (Eterna round: R97, puzzle: Exclusion 2)”, the “apparent KD of MS2 coat protein” value reads like this: (input ligand: FMN 200 uM) 0.013 µM; (input ligand: none) 0.013 µM.

In the case of “GCCGGCUAUGUAGGAUAUGGGCCUGAUACGGGUCUAGAAGGACAUGAGGAUCACCCAUGUAUCGUGCGCUGGUGGCUUGCCGGU [-30, -30 kcal and 19% A] (Eterna round: R96, puzzle: Exclusion NG 1)”, the “apparent KD of MS2 coat protein” value reads like this: (input ligand: FMN 200 uM) 0.389 µM; under setting [1], 0.119 µM; (input ligand: none) 0.141 µM.

For “AUUAGUAAUAAGGAUAUCACUAGCCUCGGCUAGUGAGAAGGUAUUACAUGAGGAUCACCCAUGUGAUUAAUUAA [E6/5-A2] (Eterna round: R97, puzzle: Exclusion 6)”, the “apparent KD of MS2 coat protein” value (input ligand: FMN 200 uM) worked out at 0.463 µM and the “apparent KD of MS2 coat protein” value (input ligand: none) worked out at 0.0797 µM.

For the sequence “AGUUUACAUGAGGAUCACCCAUGUGAGGAUAUGGAUUCGCUGGCCGUAGCCAGUGGAUCCAGAAGGCGCGUGAU [JL-ex1-4.29] (Eterna round: R97, puzzle: Exclusion 1)”, the “apparent KD of MS2 coat protein” value is 0.186 µM (input ligand: FMN 200 uM) and 0.101 µM (input ligand: none).

Regarding “UCAUGGUAGCAGGAUAUGCUAGAAAUUUUUUAUGCAGAAGGGCUUACAUGAGGAUCACCCAUGUGUUAGGUUUA [JR_E6_Sub071] (puzzle: Exclusion 6)”, the “apparent KD of MS2 coat protein” value reads like this: under setting [2], 0.0223 µM; under setting [3], 0.11 µM; under setting [4], 0.221 µM.

For “AGAGAGUCAGGAUAUCGAAGGUAGAGAAAAGGAGAGUGGUACGAGAAGGGACAUGAGGAUCACCCAUGUAGGUG [JR_Exclusion4)Sub013] (puzzle: Exclusion 4)”, the “apparent KD of MS2 coat protein” value came to 0.343 µM under setting [2], 0.431 µM under setting [3] and 0.441 µM under setting [4].

As to “CAGGGCAUAGGAUAUGCGGGUAAACACCAUGCAUUAGAAUGACAUGAGGAUCACCCAUGUAGAAGGAUGAUAGC [Eternabot (L1) Solution 98] (Eterna round: R97, puzzle: Exclusion 2)”, the “apparent KD of MS2 coat protein” value (input ligand: FMN 200 uM) turned out to be 0.0283 µM and the “apparent KD of MS2 coat protein” value (input ligand: none) came out at 0.0292 µM.

As to “AGAGAAUAGGUAGGAUAUCUUAAUAGAAAGAAUAGAGAAGGACCACAUGAGGAUCACCCAUGUGAUGUCUUGAGACUACAUGGU [Prohibition 32 - Jieux - Exclusion NG 1] (Eterna round: R96, puzzle: Exclusion NG 1)”, the “apparent KD of MS2 coat protein” value under setting [1] is 0.0133 µM.

Regarding “ACAGUGCGAGGAUAUACAUGAGGAUCACCCAUGUGAGAGAAAUAAGUGAGGAAGAAAAGUAGAAGGCGCGUUGA [Mat - Exclusion 3 - Mod of Salish D70] (puzzle: Exclusion 3)”, the “apparent KD of MS2 coat protein” value under setting [3] worked out at 0.0458 µM.

“UUUAACGAUGAGGAUAUAUGAUAUCAAAGCAUCAUAGAAGGCAUCACAUGAGGAUCACCCAUGUGAUCUUCUUU [Mat - Exclusion 6 - JL Mod - D29] (Eterna round: R97, puzzle: Exclusion 6)”: the “apparent KD of MS2 coat protein” value was determined as 0.0696 µM (input ligand: FMN 200 uM) and 0.0166 µM (input ligand: none).

For the sequence “GGUGUACUAGUCAGGAUAUGAUUAAUACCAAAGAAUCAGAAGGGACAUGAGGAUCACCCAUGUAAAGAAGGAGA [BmEX4 A.23] (Eterna round: R97, puzzle: Brourd's mod of Exclusion 4)”, the “apparent KD of MS2 coat protein” value reads like this: (input ligand: FMN 200 uM) 0.158 µM; (input ligand: none) 0.0325 µM.

Consider “UUUUUCGAACAAGCUUCGUACAUGAGGAUCACCCAUGUUUUUAGUUUUGUGUUGGUCAGUAUGGAAGUUCGUCUUAU [JR_SV3TOV1_Sub088] (puzzle: Sensor v3, turn-off variant 1)”, for which the “apparent KD of MS2 coat protein” value runs as follows: under setting [2], 0.239 µM; under setting [3], 0.356 µM; under setting [4], 0.288 µM.

Turning to “UGAUCUAGCGGAGGAUAUACAUGAGGAUCACCCAUGUAUACUCUAUGACCGUAGUCGUGGAGCGUGUAGAAGGCCGCUAGAUCU [JL ENG2 3.76] (Eterna round: R96, puzzle: Exclusion NG 2)”, the “apparent KD of MS2 coat protein” value was 0.0146 µM (input ligand: FMN 200 uM), 0.0091 µM under setting [1] and 0.0116 µM (input ligand: none).

“GAUUAUGCGAGCUUUAGGGACAUGAGGAUCACCCAUGUUCGUCUUAUUGGUCUAAAUGCACUGACAUACCUAAAUCU [JMF 74] (puzzle: Sensor v3, turn-off variant 1)”: the “apparent KD of MS2 coat protein” value by setting is: under setting [2], 0.0149 µM; under setting [3], 0.0198 µM; under setting [4], 0.0167 µM.

For the sequence “UUUUACAGGCUUAGAUCCUACAUGAGGAUCACCCAUGUGGUCCGGUGACGUGAGUCACCGGACUAAGCUCGUCUUGU [JL TOV1 3.72] (Eterna round: R97, puzzle: Sensor, turn-off variant 1)”, the “apparent KD of MS2 coat protein” value came to 0.156 µM (input ligand: FMN 200 uM) and 0.143 µM (input ligand: none).

Regarding “AAGGCGCGCGUAGGAUAUCACCGCAAAAGUCGAUGAGAAGGGCGAGUGCAUGGUGUCCUAACUUGAGGAUCACCCAAGUAAAGA [Mutated MS2 EX1.22] (Eterna round: R96, puzzle: Exclusion NG 1)”, the “apparent KD of MS2 coat protein” value turned out to be 0.0679 µM (input ligand: FMN 200 uM), 0.0415 µM under setting [1] and 0.0565 µM (input ligand: none).

Take “CUGUACUGAGGAUAUACAUGAGGAUCACCCAUGUUCUUCAGCUAGGAAACUAGCAAAGGUAGAAGGCAGUACAG [Mat - Exclusion 3 - Eli Mod - D69] (Eterna round: R97, puzzle: Exclusion 3)”: the “apparent KD of MS2 coat protein” value (input ligand: FMN 200 uM) stood at 0.784 µM and the “apparent KD of MS2 coat protein” value (input ligand: none) was 0.0343 µM.

Consider “UAUUAGCAAGCGAGGUCCCACAUGAGGAUCACCCAUGUGCUCGUCUUAUAAGGUACUGUGACGAAAGUCACGGUACC [Sensor 3, v1 - 91 v8] (Eterna round: R97, puzzle: Sensor, turn-off variant 1)”, for which the “apparent KD of MS2 coat protein” value is, setting by setting: (input ligand: FMN 200 uM) 0.0147 µM; (input ligand: none) 0.0131 µM.

With “AGCUGUGGCCGAGGAUAUCACAUGAGGAUCACCCAUGUACAUGAUUAGGCCUGGUAACAGGCUCAUGAGAAGGCGGUCUCAGCA [Eli eng2 - 013] (Eterna round: R96, puzzle: Exclusion NG 2)”, the “apparent KD of MS2 coat protein” value by setting is: (input ligand: FMN 200 uM) 0.0161 µM; under setting [1], 0.0164 µM; (input ligand: none) 0.0224 µM.

For the sequence “AUAAUACAUGUAGGAUAUCUGCACGUGUAGUGCAGAGAAGGACAUGAGGAUCACCCAUGUAAUUAAGAUCAAUUAUUAAAUUAU [ENG1/3-D3] (Eterna round: R96, puzzle: Exclusion NG 1)”, the “apparent KD of MS2 coat protein” value was found to be 0.228 µM (input ligand: FMN 200 uM), 0.0536 µM under setting [1] and 0.0756 µM (input ligand: none).

Regarding “AGUUGGCGAGGAUAUACAUGAGGAUCACCCAUGUGAGAGAAUAAAGUGAGAAAGAAAAGUAGAAGGCGCUGACG [Mat - Exclusion 3 - Mod of Salish D50] (puzzle: Exclusion 3)”, the “apparent KD of MS2 coat protein” value runs as follows: under setting [2], 0.0828 µM; under setting [3], 0.0627 µM; under setting [4], 0.0414 µM.

The values above are taken from the supplement of paper PMC9170038.
